Measurements: patent US7732563B2, “Cloning, sequencing and expression of a gene encoding an eukaryotic amino acid racemase, and diagnostic, therapeutic, and vaccination applications of parasite and viral mitogens” (priority 1999, dated 2010)

Target: T1, rTcPA45 proline racemase (Trypanosoma cruzi, UniProt Q4DA80)
T1 construct: made in house; host or cells: E. coli (pET28b(+))
Format: biochemical
Method: To investigate the genomic organization and transcription of the Tc45 gene, Southern and Northern blot analyses were done. FIG. 4 depicts the results of characterization of rTcPA45 activities. FIG. 4, part a, is an 8% SDS-PAGE gel of rTcPA45 (Coomasie blue staining). Part b depicts the proliferative activity of total splenocytes (5×10^4 cells/well) in the presence of increasing concentrations of rTcPA45 (μg/ml). […] Reaction conditions were: 0.2 M Na-acetate/25 mM β-mercaptoethanol buffer, pH6, rTcPA45 (3 μg/ml), 30 min incubation at 37° C. in 500 μl. The reaction was stopped by incubating for 10 min at 80° C. […] Reactions were carried out for 30 min at 37° C. and stopped for 5 min at 80° C. All reagents and inhibitors were purchased from Sigma. The shift in optical rotation was measured in a Polarimeter 241 MC (Perkin Elmer).
3 μg of rTcPA45 was diluted in 500 μl of buffer (0.2M NaOAc, […] β-mercaptoethanol, pH6.0) containing different concentrations of the substrate (10-80 mM or L- or D-proline). (See FIG. 4c.) The reaction was incubated for 30-60 minutes at 37° C. in a water bath, followed by heat inactivation of the enzyme for 10 minutes at 80° C. Each sample is diluted to 1.5 ml with water and the mixture submitted to measurement of optical rotation using a polarimeter, at 365 nm. A sample without enzyme is used as a control. For optimal pH determination, buffer systems with NaOAc, phosphate, and Tris were used with pH ranging from 4.0-8.2. Curve of temperature was performed between 27° C. to 47° C.
The percent of racemization of different concentrations of L-proline, D-proline, L-hydroxy-proline and D-hydroxy-proline substrates was calculated by incubating a 500-μl mixture of 3 μg TcPA45 and 10-80 mM substrate in 0.2 M sodium acetate and 25 mM β-mercaptoethanol, pH 6, for 30 min at 37° C. The reaction was stopped by incubation for 10 min at 80° C. Water (1 ml) was then added, and the optical rotation was measured in polarimeter 241 MC (Perkin Elmer, Montignyle Bretonneux, France) at a wavelength of 365 nm, in a cell with a path length of 10 cm. The percent inhibition of racemization of 80 mM L-proline was determined in the presence of different concentrations of several specific and nonspecific inhibitors ranging in concentration from 6 mM to 100 mM. The percent racemization of 80 mM L-proline as a function of pH was determined using 0.2 M sodium acetate, potassium phosphate and Tris-HCl buffers containing 25 mM β-mercaptoethanol; reactions were incubated for 30 min at 37° C. as described above. All reagents and inhibitors were purchased from Sigma.

[1] = pH 6, 3 μg rTcPA45, 30 min at 37° C.

B1: rTcPA45: recombinant T. cruzi polyclonal activator 45, B-cell mitogen and proline racemase, codons 30-423 with C-terminal 6×His tag, from E. coli (protein)
chain: RTGQEKLLFDQKYKIIKGEKKEKKKNQRANRREHQQKREIMRFKKSFTCIDMHTEGEAARIVTSGLPHIPGSNMAEKKAYLQENMDYLRRGIMLEPRGHDDMFGAFLFDPIEEGADLGMVFMDTGGYLNMCGHNSIAAVTAAVETGIVSVPAKATNVPVVLDTPAGLVRGTAHLQSGTESEVSNASIINVPSFLYQQDVVVVLPKPYGEVRVDIAFGGNFFAIVPAEQLGIDISVQNLSRLQEAGELLRTEINRSVKVQHPQLPHINTVDCVEIYGPPTNPEANYKNVVIFGNRQADRSPCGTGTSAKMATLYAKGQLRIGETFVYESILGSLFQGRVLGEERIPGVKVPVTKDAEEGMLVVTAEITGKAFIMGFNTMLFDPTDPFKNGFTLKQ
modifications: left off: small tags and cut ends
pH of maximal proline racemase activity (80 mM L-proline, buffers pH 4.0-8.2): 6 | enzyme stability to heating (10 min heating at 80° C.): inactivated | racemisation of L- and D-proline substrates [1]: racemises | racemisation of L- or D-hydroxy-proline and other natural L-amino acids [1]: not | optimal temperature for enzymatic activity (tested between 27° C. and 47° C.): 37 °C
